Measurements taken from patent US20230090247A1, “MOLECULES TARGETING RAS PROTEIN” (AELIN THERAPEUTICS, priority 2020, published 2023).
Ends that are not written are not given here.

Assays:
wild-type KRAS = target: T1, wild-type KRAS (Homo sapiens, UniProt P01116); test: Cellular co-immunoprecipitation in KRAS wild-type expressing RASless MEFs; type: cell-based; details: 25 μM biotinylated pept-in, 16 hours
T1 construct: host or cells: RASless mouse embryonic fibroblasts expressing a KRAS transgene
Description: (§1) FIG. 10 illustrates cellular co-immunoprecipitation assays showing target engagement by RAS-targeting molecules (‘pept-ins’) according to certain embodiments of the present invention. Cellular target engagement of biotinylated pept-ins was assessed using co-immunoprecipitation assay. KRAS wild-type or mutant G12V expressing RASless MEFs. […] The biotinylated versions of the G12V-selective pept-ins, however, show preferential binding to the G12V mutant KRAS protein.
(§2) Cellular co-immunoprecipitation assays were performed using either KRAS wild-type or mutant G12V expressing RASless MEFs (see elsewhere) or human NCI-H441 lung adenocarcinoma tumor cells and N-terminally biotinylated pept-ins. Cells were seeded at a density of 300,000 cells in a clear 6-well plate (Cellstar, Greiner). […] Next, cells were lysed with NP-40 lysis buffer (150 mM NaCl, 50 mM Tris HCl pH8, 1% IGEPAL (NP40), 1× Halt phosphatase/protease inhibitors (Thermo), 1 U/μl Universal Nuclease (Pierce)) and biotinylated pept-ins were captured with streptavidin-coated magnetic beads (Pierce) during 1 hours at room temperature. Beads were washed with NP40 lysis buffer at least 3 times, after which bound proteins were boiled off in 1×SDS loading dye (Bio-Rad) in NP40 lysis buffer. […]

KRAS G13D mutant = target: T2, KRAS G13D mutant (Homo sapiens, UniProt P01116, G13D); test: In vitro translation assay with streptavidin pull-down, KRAS G13D; type: binding; details: 10 μM biotinylated pept-in, Western blot
T2 construct: made in house; host or cells: cell-free: PURExpress In Vitro Protein Synthesis Kit (New England Biolabs), linear T7 DNA template
Text: (§3) FIG. 5 illustrates in vitro translation assay showing target selectivity of RAS-targeting molecules (‘pept-ins’) according to certain embodiments of the present invention. In vitro translation assay producing either wild-type or different mutant KRAS in the presence of biotinylated RAS-targeting pept-ins. Streptavidin pull-down was used to capture the biotinylated pept-ins from the translation reaction and pulled-down fraction was probed for KRAS using Western blot. The biotinylated version of pept-in 04-004-N001, i.e. 04-004-N011, which harbours an APR window sequence derived from a wild-type APR, would be predicted to target all RAS proteins independently from their mutation status. […]
(§4) In vitro translation assays were performed using the PURExpress® In Vitro Protein Synthesis Kit (New England Biolabs) according to the manufacturer's instructions. […] Proteins were resolved using Any kD 15-well Mini-PROTEAN gels (Bio-Rad) during SDS-PAGE and probed for KRAS after Western blotting using a mouse monoclonal KRAS-specific antibody (SC-30, Santa Cruz Biotechnology), which was detected with an HRP-coupled anti-mouse secondary antibody using chemiluminescence on a Bio-Rad Chemidoc MP imaging instrument. […]

mutant G12V KRAS = target: T3, mutant G12V KRAS (Homo sapiens, UniProt P01116, G12V); test: Cellular co-immunoprecipitation in KRAS G12V expressing RASless MEFs; type: cell-based; details: 25 μM biotinylated pept-in, 16 hours
T3 construct: host or cells: RASless mouse embryonic fibroblasts expressing a KRAS G12V transgene
Description: as §1, §2

KRAS wild-type = target: T4, KRAS wild-type (Homo sapiens, UniProt P01116); test: In vitro translation assay with streptavidin pull-down, KRAS wild-type; type: binding; details: 10 μM biotinylated pept-in, Western blot
T4 construct: made in house; host or cells: cell-free: PURExpress In Vitro Protein Synthesis Kit (New England Biolabs), linear T7 DNA template
Text: as §3, §4

G12C mutant KRAS = target: T5, G12C mutant KRAS (Homo sapiens, UniProt P01116, G12C); test: In vitro translation assay with streptavidin pull-down, KRAS G12C; type: binding; details: 10 μM biotinylated pept-in, Western blot
T5 construct: made in house; host or cells: cell-free: PURExpress In Vitro Protein Synthesis Kit (New England Biolabs), linear T7 DNA template
Text: as §3, §4

G12V mutant KRAS = target: T6, G12V mutant KRAS (Homo sapiens, UniProt P01116, G12V); test: In vitro translation assay with streptavidin pull-down, KRAS G12V; type: binding; details: 10 μM biotinylated pept-in, Western blot
T6 construct: made in house; host or cells: cell-free: PURExpress In Vitro Protein Synthesis Kit (New England Biolabs), linear T7 DNA template
Text: FIG. 5 illustrates in vitro translation assay showing target selectivity of RAS-targeting molecules (‘pept-ins’) according to certain embodiments of the present invention. In vitro translation assay producing either wild-type or different mutant KRAS in the presence of biotinylated RAS-targeting pept-ins. Streptavidin pull-down was used to capture the biotinylated pept-ins from the translation reaction and pulled-down fraction was probed for KRAS using Western blot. The biotinylated version of pept-in 04-004-N001, i.e. 04-004-N011, which harbours an APR window sequence derived from a wild-type APR, would be predicted to target all RAS proteins independently from their mutation status. […] Using the biotinylated versions of the biologically active pept-ins harbouring an APR window containing the G12V mutant site (04-006-N007, 04-015-N026 and 04-033-N003), however, pull-down was only observed for the G12V mutant KRAS and, in the case of 04-015-N026, for G12C mutant KRAS.
In vitro translation assays were performed using the PURExpress® In Vitro Protein Synthesis Kit (New England Biolabs) according to the manufacturer's instructions. Briefly, linear DNA fragments containing T7 promotor and terminator sequences flanking the KRAS coding sequence were generated using PCR and purified using the MinElute PCR Purification Kit (Qiagen). 250 ng of linear DNA was subsequently used for the in vitro translation reaction, which was performed for 2 hours at 37° C. with shaking (1000 rpm). Indicated biotinylated pept-ins were mixed in the translation reactions from a 5 mM stock solution in 6M Urea to a final concentration of 10 μM. Upon completion of the translation reaction, biotinylated pept-ins were captured from the reaction mix using Streptavidin coated beads (Pierce) during 90 min at room temperature. Beads were next washed with TBS containing 0.1% Tween 20 and bound proteins were finally boiled off in 1×SDS loading dye (Bio-Rad) in TBS buffer. Proteins were resolved using Any kD 15-well Mini-PROTEAN gels (Bio-Rad) during SDS-PAGE and probed for KRAS after Western blotting using a mouse monoclonal KRAS-specific antibody (SC-30, Santa Cruz Biotechnology), which was detected with an HRP-coupled anti-mouse secondary antibody using chemiluminescence on a Bio-Rad Chemidoc MP imaging instrument.
To mimic this in vitro, we devised an in vitro translation setup producing either wild-type or mutant (G12V, G12C, G12D or G13D) KRAS in the presence of biotinylated RAS-targeting pept-ins. This allowed us to perform a streptavidin pull-down to capture the biotinylated pept-ins from the translation reaction and perform SDS-PAGE and Western blotting to probe the pulled-down fraction for the presence of KRAS. […]

KRAS G12D mutant = target: T7, KRAS G12D mutant (Homo sapiens, UniProt P01116, G12D); test: In vitro translation assay with streptavidin pull-down, KRAS G12D; type: binding; details: 10 μM biotinylated pept-in, Western blot
T7 construct: made in house; host or cells: cell-free: PURExpress In Vitro Protein Synthesis Kit (New England Biolabs), linear T7 DNA template
Text: as §3, §4

[1] = system: HeLa cells overexpressing mCherry-tagged KRAS G12V; test: Cellular fluorescent imaging in HeLa cells overexpressing mCherry-tagged KRAS G12V; type: cell-based, human; details: 75 min after treatment with the FITC-labeled pept-in
Description: FIG. 7 illustrates cellular co-localization between mCherry-labeled KRAS and FITC-labeled RAS-targeting molecules (‘pept-ins’) according to certain embodiments of the present invention.
Fluorescent cellular imaging was performed using HeLa cells that were transduced with lentiviral particles carrying a construct expressing KRAS G12V labeled N-terminally with mCherry. Cells were seeded in a black μClear® Cellstar® F-bottom 96-well plates (Greiner) in […] full growth medium. […] Next, cells were fixed, washed and counterstained with the nuclear dye NucBlue™ (containing Hoechst 33342). Images were captured on a Leica confocal microscope.
To complement the co-immunoprecipitation approach, we also used a cellular imaging approach to show target engagement. To this end, we generated a HeLa cell line overexpressing mCherry-tagged KRAS G12V and FITC-labelled versions of the RAS-targeting pept-ins.

[2] = system: SW620 xenograft of human KRAS G12V mutant colorectal cancer; test: In vivo SW620 xenograft model; set-up: species or system Female NCr nu/nu mice
Description: FIG. 12 illustrates that RAS-targeting pept-ins reduce tumor growth in a xenograft model of KRAS G12V mutant cancer. […] Pept-ins were dosed 3 times per week by intratumoral injection at either 20 or 200 μg once the tumors reached 100-150 mm^3. Model response was monitored by a positive control group receiving Irinotecan at 100 mg/kg, once per week for 3 weeks. Group sizes were N=6 for the non-treated group, N=5 for the vehicle groups and N=8 for the pept-in and positive control groups. Graphs show box plots of tumor volumes at day 22 after treatment started.
Female NCr nu/nu mice (8 to 12 weeks) were inoculated with 1×10^6 SW620 tumor cells in 50% Matrigel subcutaneously in the hind flank. The cell Injection Volume was 0.1 mL/mouse. When tumors reached an average size of 100-150 mm^3 a pair match was performed, and treatment started. Group sizes were N=6 for the non-treated group, N=5 for the vehicle groups and N=8 for the pept-in and positive control groups. Tumor growth was monitored by caliper measurement twice per week. Model response was monitored by Irinotecan dosed once per week at 100 mg/kg intraperitoneally for 3 weeks.
To assess whether the RAS-targeting pept-ins are able to attenuate growth of KRAS G12V-driven tumors in vivo, a subcutaneous xenograft model of human KRAS G12V colorectal cancer (SW620) was used. Once the tumors reached 100-150 mm^3 in size, pept-ins were administered directly into the tumor mass by intratumoral injection three times per week during two weeks at two different doses (20 μg and 200 μg).

[3] = system: RASless MEFs expressing KRAS G12V; test: RASless MEF spheroid efficacy, KRAS G12V expressing MEFs; type: cell-based, mouse; details: spheroids, 5 days of exposure, compared to KRAS WT and G12C MEFs
Description: (§5) FIG. 9 illustrates mutant-selective cellular efficacy using the RASless MEF panel. Graph showing mean±SD as well as individual assay IC50s from at least three independent experiments assessing the efficacy of the indicated RAS-target pept-ins on a panel of RASless MEFs, expressing either wild-type (WT), mutant G12V or G12C KRAS, or a V600E mutant BRAF in absence of endogenous K-, H-, and NRAS.
(§6) For the single-dose viability screen on spheroid cultures, 1000 cells were seeded per well in black Ultra-Low Attachment (ULA) round-bottom 96-well plates (Corning) in […] full growth medium. […] Technical duplicates were included for all experimental pept-in conditions 5 days after treatment viability was assessed using the CellTiter Glo 3D reagent (Promega) according to the manufacturer's instructions, with the following adaptation: 80 μL of reagent was added per well. Readout was performed on a Clariostar plate reader (BMG). […]
(§7) RAS mutant-selectivity on cellular efficacy was assessed using the isogenic RASless mouse embryonic fibroblast (MEF) panel. […] The panel assessed included the common clinical KRAS variants expressed as transgene (WT, G12V and G12C) and an additional cell line dependent on the expression of BRAF V600E for proliferation.
(§8) Efficacy of RAS-targeting pept-ins on MEFs growing as spheroids was assessed after 5 days of exposure. […]

[4] = system: RASless MEFs expressing KRAS G12C; test: RASless MEF spheroid efficacy, KRAS G12C expressing MEFs; type: cell-based, mouse; details: spheroids, 5 days of exposure
Description: as §5, §6, §7, §8

[5] = system: RASless MEFs expressing KRAS WT; test: RASless MEF spheroid efficacy, KRAS WT expressing MEFs; type: cell-based, mouse; details: spheroids, 5 days of exposure
Description: as §5, §6, §7, §8

KRAS G12V = KRAS G12V (human, UniProt P01116-2 1-188, limits assumed); test: cell-based or functional assay

Substance: 04-004-N011: biotinylated version of pept-in 04-004-N001 (KLSVFAIKGSKLSVFAIK; also: biotinylated, site not given here)
- co-precipitation of wild-type KRAS (wild-type KRAS): precipitate both wild-type and mutant G12V KRAS well
- binding (pull-down) to KRAS G13D (KRAS G13D mutant): less efficient
- co-precipitation of mutant G12V KRAS (mutant G12V KRAS): precipitate both wild-type and mutant G12V KRAS well
- streptavidin pull-down of KRAS wild-type (KRAS wild-type): efficient pull-down
- streptavidin pull-down of KRAS G12C (G12C mutant KRAS): efficient pull-down
- streptavidin pull-down of KRAS G12V (G12V mutant KRAS): efficient pull-down
- binding (pull-down) to KRAS G12D (KRAS G12D mutant): less efficient

Substance: 04-006-N007: biotinylated version of a biologically active pept-in harbouring an APR window containing the G12V mutant site (KVVVGAVKGSKVVVGAVK; also: biotinylated, site not given here)
- streptavidin pull-down of KRAS G12V (G12V mutant KRAS): notable pull-down

Substance: 04-015-N026: biotinylated version of a biologically active pept-in harbouring an APR window containing the G12V mutant site (KVVVGAVGKGSKVVVGAVGK; also: biotinylated, site not given here)
- streptavidin pull-down of KRAS G12C (G12C mutant KRAS): notable pull-down
- streptavidin pull-down of KRAS G12V (G12V mutant KRAS): notable pull-down

Substance: 04-015-N032: FITC-labelled version of pept-in 04-015-N001 (KVVVGAVGKGSKVVVGAVGK; not fully specified (C-terminus); also: FITC-labelled, site not given here)
- association with mCherry-labelled KRAS (inclusion-like perinuclear structures) [1]: associates with mCherry-labelled KRAS

Substance: 04-033-N003: biotinylated version of a biologically active pept-in harbouring an APR window containing the G12V mutant site (KVVVGAVGVGKGSKVVVGAVGVGK; also: biotinylated, site not given here)
- streptavidin pull-down of KRAS G12V (G12V mutant KRAS): notable pull-down

Substance: Ac-KLSVFAIKGSKLSVFAIK-NH2 [04-004-N001]
- average tumor volume at day 22 after treatment started ([2]; 20 μg intratumoral injection three times per week): only significant for the 200 μg dosing group
- average tumor volume at day 22 after treatment started ([2]; 200 μg intratumoral injection three times per week): only significant for the 200 μg dosing group
- efficacy on MEFs expressing KRAS G12V [3]: notable increased efficacy
- efficacy on MEFs expressing KRAS G12C [4]: responded similarly as the BRAF V600E expressing RASless MEFs
- efficacy on MEFs expressing KRAS WT [5]: responded similarly as the BRAF V600E expressing RASless MEFs

Substance: SAH-SOS-1A (peptide)
- IC50 on viability of adherent NCI-H441 cells after 4 days exposure (KRAS G12V): 15 µM
